Results taken from patent US20220331394A1 (SUSAVION BIOSCIENCES, published 2022).
No end group written: not given here.

Legend:
Siglec-1 = target: T1, Siglec-1 (human, UniProt Q9BZZ2 20-1641, limits assumed); assay: solid-phase binding assay with recombinant receptor
T1 construct: construct not described
Protocol: (§1) Binding Assays Solid-phase binding assays were performed with streptavidin-, protein A/G-, or Nickel-coated microtiter plates (Pierce). His-tagged or Fc-fusion recombinant receptors (R&D Systems, Minneapolis, Minn.) were reconstituted in PBS. Sufficient receptors were added to wells to saturate the coating. His-tagged receptors were added to each well at a 5-fold excess over the stated capacity of the Ni coating to minimize non-specific binding of the peptide. Wells were washed three times with binding buffer (25 mM Tris HCl, pH 7.4, 150 mM NaCl, 0.05% Tween-20) to remove unbound receptor and 50 μL of 2 μM biotinylated peptide in binding buffer were added and allowed to incubate for 1 h. The wells were washed four times with binding buffer and then incubated with 50 μL of 1 μg/mL streptavidin conjugated with peroxidase (Sigma-Aldrich) for 1 h. The wells were washed five times with binding buffer and 50 μL of peroxidase substrate (1-Step™ Ultra TMB, Pierce) were added. After several minutes to allow color development, the reaction was stopped with 50 μL 1 M H₃PO₄ and absorbance was measured at 450 nm. Bound streptavidin was quantitated by the specific activity of peroxidase (absorbance/ng protein conjugate/min) under the conditions of the assay.
(§2) Solid-phase binding assays were performed with recombinant human receptors. Three variations of the binding assay were used in this study, all of which allowed the arms of the tetravalent peptide to have full flexibility. (i) Biotinylated peptide was bound in microtiter wells coated with streptavidin and incubated with recombinant human receptors. After extensive washing, the bound receptor was measured by peroxidase conjugated to a receptor-specific antibody. (ii) The extracellular domains of receptors, which were fused with the Fc domain of immunoglobulin IgG, were bound in wells coated with protein A/G. Biotinylated peptide was incubated with the receptors and, after extensive washing, bound peptide was measured with streptavidin conjugated with peroxidase. Or (iii), recombinant receptors with a poly-His tag were bound to Nickel-coated wells and incubated with biotinylated peptide. svL4 and sv6D contain His residues (FIGS. 1A, 1C) and can bind to the Ni coating, which was minimized by adding sufficient poly-His-tagged receptor to saturate the Ni coating.

CD44 = target: T2, CD44 (human, UniProt P16070 21-220, limits assumed); assay: as above
T2 construct: construct not described; also called receptor for hyaluronic acid
Protocol: as §1, §2

IL-4R = target: T3, IL-4R (human, UniProt P24394 26-232, limits assumed); assay: as above
T3 construct: construct not described; also called receptor for IL-4
T3 sequence (looked up): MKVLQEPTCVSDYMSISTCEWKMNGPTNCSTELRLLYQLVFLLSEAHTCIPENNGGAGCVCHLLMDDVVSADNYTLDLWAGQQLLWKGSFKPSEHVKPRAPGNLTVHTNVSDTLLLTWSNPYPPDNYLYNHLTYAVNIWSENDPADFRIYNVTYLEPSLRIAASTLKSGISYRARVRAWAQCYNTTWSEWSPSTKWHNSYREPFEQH
Protocol: as §1, §2

CLEC9A = target: T4, CLEC9A (human, UniProt Q6UXN8 57-241); assay: as above
T4 construct: construct not described
Protocol: as §1, §2

DC-SIGN = target: T5, DC-SIGN (human, UniProt Q9NNX6 62-404, limits assumed); assay: as above
T5 construct: construct not described; also called CD209; dendritic cell-specific intercellular adhesion molecule (ICAM)-3 grabbing non-integrin
T5 sequence (looked up): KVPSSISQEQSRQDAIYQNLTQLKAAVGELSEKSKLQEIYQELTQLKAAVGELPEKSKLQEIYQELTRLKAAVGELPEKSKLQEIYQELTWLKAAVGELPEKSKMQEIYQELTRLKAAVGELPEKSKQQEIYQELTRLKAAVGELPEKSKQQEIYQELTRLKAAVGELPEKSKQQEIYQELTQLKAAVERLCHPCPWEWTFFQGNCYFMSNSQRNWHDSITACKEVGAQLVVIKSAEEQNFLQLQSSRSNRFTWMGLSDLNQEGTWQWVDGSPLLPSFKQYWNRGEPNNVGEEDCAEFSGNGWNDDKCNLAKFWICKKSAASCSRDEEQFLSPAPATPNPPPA
Protocol: as §1, §2

[1] = target: T6, recombinant human Ca2+-dependent lectin-type receptor family member 10A (CLEC10A) (human, UniProt Q8IUN9 61-316); assay: solid-phase binding assay, double-reciprocal plot of binding vs. peptide concentration
T6 construct: extracellular domain; Bought recombinant receptor; also called CD301; macrophage galactose-type lectin
T6 sequence (looked up): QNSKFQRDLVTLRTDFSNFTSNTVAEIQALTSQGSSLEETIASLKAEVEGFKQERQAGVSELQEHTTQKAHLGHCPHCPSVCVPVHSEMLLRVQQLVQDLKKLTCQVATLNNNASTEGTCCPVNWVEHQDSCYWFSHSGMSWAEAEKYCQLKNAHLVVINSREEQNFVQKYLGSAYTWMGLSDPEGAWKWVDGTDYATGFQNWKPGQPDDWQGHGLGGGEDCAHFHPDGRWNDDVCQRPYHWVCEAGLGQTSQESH
Protocol: (§3) Binding was detected with streptavidin-peroxidase conjugate. Similar data were obtained in 2 experiments. (FIG. 3C) Inhibition by EGTA of binding of sv6D (pattern) or svL4 (solid) to CLEC10A and ASGPR-1, respectively. EGTA (1 mM) was added to the final concentrations indicated to assays. Retention of bound CLEC10A was determined by incubation with biotinylated anti-CLEC10A (goat IgG, R&D Systems) and detection with streptavidin-peroxidase conjugate (light grey circle). Similar data were obtained in 3 experiments. (FIG. 3D) Binding of svL4 and sv6D to human recombinant CLEC10A and ASGPR-1 as a function of concentration of peptide in the assay. The figure is representative of 4 separate assays.
as §1
(§4) Corresponding values for binding of svL4 to CLEC10A and ASGPR-1 of 0.24±0.04 μM and 0.21±0.03 μM, respectively, were obtained (FIG. 3D).

[2] = target: T7, recombinant human asialoglycoprotein receptor 1 (ASGPR-1) (human, UniProt P07306 62-291); assay: as above
T7 construct: extracellular domain; Bought recombinant receptor; also called Ashwell-Morell receptor; CLEC4H1
T7 sequence (looked up): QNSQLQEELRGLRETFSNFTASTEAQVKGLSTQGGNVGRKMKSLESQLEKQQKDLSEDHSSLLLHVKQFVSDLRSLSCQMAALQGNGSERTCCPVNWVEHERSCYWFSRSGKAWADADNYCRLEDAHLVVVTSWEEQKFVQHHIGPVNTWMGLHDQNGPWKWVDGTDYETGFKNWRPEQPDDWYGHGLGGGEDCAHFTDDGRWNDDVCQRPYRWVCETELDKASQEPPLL
Protocol: as §3, §1, §4

[3] = target: T6, recombinant human Ca2+-dependent …; assay: solid-phase binding assay with recombinant human receptor
Protocol: as §1, with “The wells were washed five times with binding buffer and 50 μL of peroxidase substrate (1-Step™ Ultra TMB, Pierce) were added.” left out
(§5) Solid-phase binding assays were performed with recombinant human receptors. […] After extensive washing, the bound receptor was measured by peroxidase conjugated to a receptor-specific antibody. […]

[4] = target: T7, recombinant human asialoglycoprotein …; assay: as above
Protocol: as §1, with “The wells were washed five times with binding buffer and 50 μL of peroxidase substrate (1-Step™ Ultra TMB, Pierce) were added.” left out
as §5

recombinant rat CLEC10A = target: T8, recombinant rat CLEC10A (rat, UniProt P49301 59-306, limits assumed); assay: solid-phase competition with biotinylated GalNAc-PAA
T8 construct: construct not described; also called CLEC10A from rat
T8 sequence (looked up): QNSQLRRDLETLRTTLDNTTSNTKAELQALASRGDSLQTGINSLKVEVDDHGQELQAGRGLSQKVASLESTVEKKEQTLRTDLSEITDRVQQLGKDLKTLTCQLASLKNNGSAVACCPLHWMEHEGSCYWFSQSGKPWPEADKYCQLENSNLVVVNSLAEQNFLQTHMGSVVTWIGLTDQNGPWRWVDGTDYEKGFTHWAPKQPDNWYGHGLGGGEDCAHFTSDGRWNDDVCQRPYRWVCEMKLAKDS
Protocol: as §3, with “FIGS. 3A-3D. sv6D as a mimetic of GalNAc. (FIG. 3A) Inhibition by sv6D of binding of multivalent GalNAc-PAA (GlycoTech Corp., Frederick, Md.) to recombinant rat CLEC10A and human ASGPR-1. The reaction mixture included approximately 200 pmoles of biotinylated GalNc-PAA and increasing concentrations of peptide. The figure includes average values from 3 independent experiments. (FIG. 3B) Biotinylated sv6D or GalNAc-PAA were incubated with rabbit antiserum raised against the 6D sequence (NQHTPR) conjugated to keyhole limpet hemocyanin (KLH). Binding was” for “Binding was”
To further determine whether sv6D interacts with the actual sugar binding site, the ability of sv6D to compete with GalNAc-PAA for binding was assayed. […]

T4 sequence (Q6UXN8 57-241 limits assumed): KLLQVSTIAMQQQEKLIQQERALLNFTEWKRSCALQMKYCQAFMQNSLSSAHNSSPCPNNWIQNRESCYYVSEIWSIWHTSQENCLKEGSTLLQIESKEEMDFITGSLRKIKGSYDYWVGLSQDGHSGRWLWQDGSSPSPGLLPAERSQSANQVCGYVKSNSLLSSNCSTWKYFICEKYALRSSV
T1 sequence (Q9BZZ2 20-1641 limits assumed): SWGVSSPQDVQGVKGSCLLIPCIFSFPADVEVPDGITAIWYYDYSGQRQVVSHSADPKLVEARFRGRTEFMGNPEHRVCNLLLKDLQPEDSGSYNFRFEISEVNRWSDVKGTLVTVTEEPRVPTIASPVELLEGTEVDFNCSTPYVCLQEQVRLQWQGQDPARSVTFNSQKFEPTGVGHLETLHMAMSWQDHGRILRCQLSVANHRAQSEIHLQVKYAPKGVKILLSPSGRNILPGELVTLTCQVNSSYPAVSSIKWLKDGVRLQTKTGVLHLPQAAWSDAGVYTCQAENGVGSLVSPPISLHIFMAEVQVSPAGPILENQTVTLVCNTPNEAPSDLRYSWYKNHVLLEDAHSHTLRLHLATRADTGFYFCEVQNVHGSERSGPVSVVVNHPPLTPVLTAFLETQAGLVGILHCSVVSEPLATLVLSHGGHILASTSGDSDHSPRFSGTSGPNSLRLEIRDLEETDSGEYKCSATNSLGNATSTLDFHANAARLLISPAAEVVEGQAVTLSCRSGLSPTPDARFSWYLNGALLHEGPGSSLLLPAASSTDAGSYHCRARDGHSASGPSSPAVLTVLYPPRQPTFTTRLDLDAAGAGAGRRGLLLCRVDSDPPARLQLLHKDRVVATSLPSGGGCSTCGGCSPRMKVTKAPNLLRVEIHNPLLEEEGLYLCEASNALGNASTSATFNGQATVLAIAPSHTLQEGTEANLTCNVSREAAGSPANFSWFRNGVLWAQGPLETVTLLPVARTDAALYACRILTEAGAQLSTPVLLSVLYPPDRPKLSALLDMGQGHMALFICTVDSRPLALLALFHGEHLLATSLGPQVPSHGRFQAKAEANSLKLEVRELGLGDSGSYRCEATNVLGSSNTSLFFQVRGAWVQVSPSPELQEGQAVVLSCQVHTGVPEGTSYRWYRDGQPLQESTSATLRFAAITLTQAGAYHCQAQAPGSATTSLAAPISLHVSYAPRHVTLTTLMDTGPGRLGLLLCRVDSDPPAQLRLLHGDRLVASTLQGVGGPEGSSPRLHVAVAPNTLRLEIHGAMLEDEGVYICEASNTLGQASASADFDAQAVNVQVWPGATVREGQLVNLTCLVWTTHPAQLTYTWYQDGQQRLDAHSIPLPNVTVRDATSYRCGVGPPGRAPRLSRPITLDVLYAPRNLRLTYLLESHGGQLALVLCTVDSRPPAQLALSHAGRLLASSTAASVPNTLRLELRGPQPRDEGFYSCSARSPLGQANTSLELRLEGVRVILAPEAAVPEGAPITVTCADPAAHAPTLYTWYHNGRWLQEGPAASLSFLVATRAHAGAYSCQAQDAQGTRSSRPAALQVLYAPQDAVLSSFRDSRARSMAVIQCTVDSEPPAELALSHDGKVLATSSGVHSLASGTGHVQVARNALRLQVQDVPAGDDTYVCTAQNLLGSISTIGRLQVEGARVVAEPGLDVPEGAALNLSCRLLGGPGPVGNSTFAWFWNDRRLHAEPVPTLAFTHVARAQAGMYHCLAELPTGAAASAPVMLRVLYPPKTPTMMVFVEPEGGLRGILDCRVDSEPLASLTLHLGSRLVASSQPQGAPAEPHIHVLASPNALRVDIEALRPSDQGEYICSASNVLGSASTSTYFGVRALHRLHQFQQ
T2 sequence (P16070 21-220 limits assumed): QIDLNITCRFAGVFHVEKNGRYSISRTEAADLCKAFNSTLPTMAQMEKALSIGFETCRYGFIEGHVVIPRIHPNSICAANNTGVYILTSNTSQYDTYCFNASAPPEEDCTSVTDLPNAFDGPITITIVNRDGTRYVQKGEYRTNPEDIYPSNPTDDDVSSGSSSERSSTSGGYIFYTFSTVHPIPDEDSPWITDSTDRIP

B1: svL4 (peptide)
peptide: VQATQSNQHTPRGGGS
modifications: also: tetravalent: four arms joined through GGGS linker to branched tri-lysine core, core C-terminus amide or biotinyl-lysinyl-amide
notes: the tie follows from svL4 being the 12-mer whose C-terminal 6-mer is sv6D (NQHTPR); also called tetravalent peptide svL4; full-length svL4
binding result (Siglec-1): no binding (tested: 2 µM biotinylated peptide) | binding result (CD44): no binding (tested: 2 µM biotinylated peptide) | binding result (IL-4R): no binding (tested: 2 µM biotinylated peptide) | binding result (CLEC9A): no binding (tested: 2 µM biotinylated peptide) | binding result (DC-SIGN): no binding (tested: 2 µM biotinylated peptide) | Kd [1]: 240 nM | Kd [2]: 210 nM

B2: svC1 (peptide)
peptide: VQATQSGGGS
modifications: also: arms on branched tri-lysine core as for svL4, biotinylated at C-terminus of core in binding assays
notes: also called N-terminal half of svL4
binding result [3]: no binding (tested: 2 µM biotinylated peptide) | binding result [4]: no binding (tested: 2 µM biotinylated peptide)

B3: sv6D (peptide)
peptide: NQHTPRGGGS
modifications: also: tetravalent: four arms joined through GGGS linker to branched tri-lysine core, core C-terminus amide or biotinyl-lysinyl-amide
notes: Tetravalent branched construct: four arms NQHTPR + GGGS linker on a tri-lysine core; Biotinylated in solid-phase assays; also called tetravalent peptide sv6D; C-terminal half of svL4
binding result (Siglec-1): no binding (tested: 2 µM biotinylated peptide) | binding result (CD44): no binding (tested: 2 µM biotinylated peptide) | binding result (IL-4R): no binding (tested: 2 µM biotinylated peptide) | binding result (CLEC9A): no binding (tested: 2 µM biotinylated peptide) | binding result (DC-SIGN): no binding (tested: 2 µM biotinylated peptide) | binding result (recombinant rat CLEC10A): binds | Kd [1]: 150 nM | Kd [2]: 120 nM
